# According to patent US20150079064:
# Experiments:
# [1] = tested on: TALEN TN3 (FokI ELD-S/KKR-S) (Artificial); experiment: cell_activity; settings: pair with TN8; maximum in one DMD myoblast line (6.8% in the other); Surveyor; site preceded by 5'T
# [2] = tested on: TALEN TN8 (FokI ELD-S/KKR-S) (Artificial); experiment: cell_activity; settings: pair with TN3; maximum in one DMD myoblast line (6.8% in the other); Surveyor; site preceded by 5'T
Sequence,activity (% alleles modified) [1],activity (% alleles modified) [2]
AGCTCCTACTCAGACT (double strand) [TN3 half-site],12.7,–
CCTTAGTAACCACAGGT (double strand) [TN8 half-site],–,12.7
